{"source": "paper PMC9405056", "about": "“Functional Characterization of Arylalkylamine N-Acetyltransferase, a Pivotal Gene in Antioxidant Melatonin Biosynthesis from Chlamydomonas reinhardtii” (Antioxidants, 2022)", "substrate": "NCCc1c[nH]c2ccc(O)cc12", "test": "HPLC with fluorescence detection of N-acetylserotonin; Lineweaver-Burk plot", "format": "biochemical, Chlamydomonas reinhardtii", "conditions": "acetyl-CoA as co-substrate (0.5 mM in the standard assay), 100 mM potassium phosphate, standard assay pH 8.8, 45 °C, 30 min, serotonin 50 to 2000 μM"}
{"protein": "CrAANAT (Chlamydomonas reinhardtii) (protein, full length, 191 residues, codon-optimized synthetic gene; N-terminal GST fusion with C-terminal His6 (GST-CrAANAT-His6, pET60), tags kept) MAEESLDASVQPLGSTVFFGPVQPEMLDRIHELEAASYPEDEAATYEKLKFRIENASNVFLVALSAEGDGEPKVVGFVCGTQTRASKLTHESMSTHDADGALLCIHSVVVDAALRRRGLATRMLRAYTAFVAATSPGLTGIRLLTKQNLIPLYEGAGFTLLGPSDVEHGADLWYECAMELEAEEEAEAAEA", "values": [{"measurement": "Km", "value": 247, "unit": "µM"}]}
